Results from US20210238253A1 (GUANGDONG ZHAOTAI INVIVO BIOMEDICINE, published 2021).

Tests used:
[1] = molecular target: T1, hCD19-his (human CD19 recombinant protein, Pro20-Lys291, His tag at C-terminus) (human, UniProt P15391 20-291); experiment: ELISA, coated hCD19-His, fully humanized antibody titrated
T1 construct: range 20-291; also called human CD19-His
T1 sequence (looked up): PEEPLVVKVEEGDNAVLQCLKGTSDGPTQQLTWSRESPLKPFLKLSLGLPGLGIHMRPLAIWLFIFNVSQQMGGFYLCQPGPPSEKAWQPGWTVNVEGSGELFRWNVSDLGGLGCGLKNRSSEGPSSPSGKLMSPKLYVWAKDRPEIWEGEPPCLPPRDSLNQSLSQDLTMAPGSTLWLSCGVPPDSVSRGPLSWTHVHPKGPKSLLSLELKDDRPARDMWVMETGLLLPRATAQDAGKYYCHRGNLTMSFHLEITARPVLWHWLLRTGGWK
Protocol: According to the method described in Example 4, 0.5 μg/ml of hCD19-His was spread and incubated. The fully humanized antibodies were serially diluted and added to bind the incubated antigen. The binding signal of each antibody could be detected with HRP-labeled goat […] Fc antibody. The results are shown in FIG. 5 and Table 5, as follows: […]

[2] = molecular target: T2, CD19 expressed by Nalm6 cells (UniProt P15391 20-556); experiment: flow cytometry
T2 chain: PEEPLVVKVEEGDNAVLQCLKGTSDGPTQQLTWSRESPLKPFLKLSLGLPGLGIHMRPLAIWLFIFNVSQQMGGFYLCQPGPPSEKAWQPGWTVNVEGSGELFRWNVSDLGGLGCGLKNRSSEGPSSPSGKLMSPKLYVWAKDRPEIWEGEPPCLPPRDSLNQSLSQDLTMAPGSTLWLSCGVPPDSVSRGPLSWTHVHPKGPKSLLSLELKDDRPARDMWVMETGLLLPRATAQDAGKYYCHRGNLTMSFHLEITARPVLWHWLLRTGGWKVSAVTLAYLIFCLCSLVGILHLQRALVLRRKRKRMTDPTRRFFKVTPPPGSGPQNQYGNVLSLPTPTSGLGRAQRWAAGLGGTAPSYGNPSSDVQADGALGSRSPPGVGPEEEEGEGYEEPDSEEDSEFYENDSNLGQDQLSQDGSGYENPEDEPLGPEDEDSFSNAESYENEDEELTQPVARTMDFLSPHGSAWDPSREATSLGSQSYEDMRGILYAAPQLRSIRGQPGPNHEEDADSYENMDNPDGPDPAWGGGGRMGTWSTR

[3] = molecular target: T1, hCD19-his (human CD19 recombinant …); experiment: ELISA, coated hCD19-His
Protocol: The antibodies were screened by ELISA according to Example 2. Briefly, […] of hCD19-His (ACRO) were spread and incubated. The purified antibodies were serially diluted to bind the incubated antigen. The binding signal of each antibody could be detected with HRP-labeled goat anti-rat Fc antibody.
Graphpad Prism software was used to calculate the fitting data.

[4] = molecular target: T3, CD19 expressed by Nalm6 cells (UniProt P15391 20-556, limits assumed); experiment: flow cytometry on Nalm6 cells
T3 construct: whole, on cells; Endogenous CD19 on tumor cell lines; also called Nalm6/GL; CD19 antigen on RAJI-GL and NALM6-GL tumor cells
T3 sequence (looked up): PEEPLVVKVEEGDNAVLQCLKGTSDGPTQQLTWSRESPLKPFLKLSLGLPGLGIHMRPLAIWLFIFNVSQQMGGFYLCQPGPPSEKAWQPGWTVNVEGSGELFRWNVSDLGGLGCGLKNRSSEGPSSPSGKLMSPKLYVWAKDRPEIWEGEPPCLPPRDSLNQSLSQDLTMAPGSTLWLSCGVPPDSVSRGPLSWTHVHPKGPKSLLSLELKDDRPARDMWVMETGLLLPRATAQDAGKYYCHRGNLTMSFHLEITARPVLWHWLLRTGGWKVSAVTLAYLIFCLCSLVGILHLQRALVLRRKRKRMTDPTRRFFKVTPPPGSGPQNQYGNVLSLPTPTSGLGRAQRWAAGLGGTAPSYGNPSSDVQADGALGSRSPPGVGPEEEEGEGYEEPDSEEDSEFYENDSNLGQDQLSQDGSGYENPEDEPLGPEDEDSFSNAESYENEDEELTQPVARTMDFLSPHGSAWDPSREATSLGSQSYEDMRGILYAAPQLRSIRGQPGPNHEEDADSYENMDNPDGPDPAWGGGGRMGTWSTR
Protocol: The CD19-expressing tumor cells Nalm6 in logarithmic growth phase were collected and resuspended in PBS at a cell density of 10⁵/well, 100 μl/well. The diluted CD19 antibodies were added into the well and incubated at 4° C. for 1 hour. The cells were washed three times with flow cytometry wash buffer. Anti-rat IgG-Alexa Fluor 647 (Abcam, Cat #ab150163) was added and incubated at 4° C. for 1 hour. The cells were washed three times with flow cytometry wash buffer. The samples were analyzed by flow cytometry. The results are shown in FIG. 3 and Table 4, as follows: […]

hVISTA-his = molecular target: T4, hVISTA-his (human, UniProt Q9H7M9 33-194); experiment: ELISA, coated antigen 0.5 µg/ml
T4 construct: Coated antigen of the specificity ELISA
T4 sequence (looked up): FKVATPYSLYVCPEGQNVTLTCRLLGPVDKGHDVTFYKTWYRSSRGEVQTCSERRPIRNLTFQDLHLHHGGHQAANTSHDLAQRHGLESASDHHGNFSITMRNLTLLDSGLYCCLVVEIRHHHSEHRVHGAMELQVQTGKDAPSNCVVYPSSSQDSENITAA
Protocol: (§1) According to the method described in Example 4, 0.5 μg/ml of hCD19-His, hVISTA-his, hPD-L1, hCD40, h41BB and hLAG3 were spread and incubated respectively, and 2μg/ml of purified antibodies were added to bind the incubated antigen. The binding signal of each antibody could be detected with HRP-labeled goat anti-rat Fc antibody.

h41BB = molecular target: T5, h41BB (human, UniProt Q07011 24-186); experiment: ELISA, coated antigen 0.5 µg/ml
T5 construct: Coated antigen of the specificity ELISA
Protocol: as §1

hLAG3 = molecular target: T6, hLAG3 (human, UniProt P18627 23-450, limits assumed); experiment: ELISA, coated antigen 0.5 µg/ml
T6 construct: Coated antigen of the specificity ELISA
T6 sequence (looked up): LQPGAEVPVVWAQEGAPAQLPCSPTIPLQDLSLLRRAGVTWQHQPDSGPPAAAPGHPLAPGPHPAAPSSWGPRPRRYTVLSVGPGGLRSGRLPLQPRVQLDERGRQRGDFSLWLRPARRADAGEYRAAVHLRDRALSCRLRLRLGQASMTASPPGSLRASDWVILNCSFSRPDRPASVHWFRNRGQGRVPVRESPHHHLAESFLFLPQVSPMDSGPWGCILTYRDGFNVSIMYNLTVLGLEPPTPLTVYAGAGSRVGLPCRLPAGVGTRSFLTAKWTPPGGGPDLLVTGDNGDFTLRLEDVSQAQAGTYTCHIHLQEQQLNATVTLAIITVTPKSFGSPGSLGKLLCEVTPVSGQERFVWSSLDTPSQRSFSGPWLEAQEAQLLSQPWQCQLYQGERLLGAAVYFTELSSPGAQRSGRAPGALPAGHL
Protocol: as §1

hCD40 = molecular target: T7, hCD40 (human, UniProt P25942 21-193); experiment: ELISA, coated antigen 0.5 µg/ml
T7 construct: Coated antigen of the specificity ELISA
Protocol: as §1

hPD-L1 = molecular target: T8, hPD-L1 (human, UniProt Q9NZQ7 19-238, limits assumed); experiment: ELISA, coated antigen 0.5 µg/ml
T8 construct: Coated antigen of the specificity ELISA
Protocol: as §1

T7 sequence (P25942 21-193 limits assumed): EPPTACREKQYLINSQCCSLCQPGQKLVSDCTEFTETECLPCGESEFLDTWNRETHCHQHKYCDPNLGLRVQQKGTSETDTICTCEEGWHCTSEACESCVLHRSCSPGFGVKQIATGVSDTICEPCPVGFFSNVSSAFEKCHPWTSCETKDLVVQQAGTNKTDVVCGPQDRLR
T8 sequence (Q9NZQ7 19-238 limits assumed): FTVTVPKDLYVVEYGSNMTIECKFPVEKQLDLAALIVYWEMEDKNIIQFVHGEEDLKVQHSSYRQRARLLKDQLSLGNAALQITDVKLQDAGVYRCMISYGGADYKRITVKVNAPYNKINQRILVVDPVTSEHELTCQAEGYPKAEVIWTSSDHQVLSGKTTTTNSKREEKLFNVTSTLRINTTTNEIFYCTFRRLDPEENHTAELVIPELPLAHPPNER

Binder | EC50 [1] [µg/mL] | EC50 [2] [µg/mL] | EC50 [3] [µg/mL] | Maximum mean fluorescence intensity (30 µg/ml) [4] | binding result (hVISTA-his) | binding result (h41BB) | binding result (hLAG3) | binding result (hCD40) | binding result (hPD-L1)
52F9 fully humanized antibody (recombinant, human IgG1 / kappa) (antibody, V domains shown) VH: QVQLVESGGGVVQAGRSLRLSCAASGFTFSNYGIHWVRQAPGKGLEWVGVIWHDGSIKNYADFVKGRFTISRDNSEDTLYLQMNSLRAEDTAVYYCAREQGNYYGWGSYKAFDIWGQGTMVTVSS VL: DIQLTQSPSFLSVFVGDRVTITCRASQGISNYLAWYQQKPGKAPELLLYATSTLQSGVPSRLSGSGSGTEFTLTLSSLQPEDFATYYCQQVYSFPYTFGQGTKLEIK | 0.00792 | – | – | – | – | – | – | – | –
31A2 (hybridoma antibody) (antibody, V domains shown, hybridoma mAb from H2L2 mouse (human variable, rat constant regions)) VH: QVQLVESGGGVVQPGRSLRLSCAASGFTFSRHGMHWVRQAPGKGLEWVAVIWYDGSNKYYVDSVKGRFTISRDNSKNTLDLQMNSLRAEDTAVYYCARRSITWDGAFDIWGQGTMVTVSS VL: DIQMTQSPSTLSASVGDRVTISCRASQSISSWLAWYQQKPGKAPKLLIYKASSLESGVPSRFSGSGSGTEFTLTISSLQPDDFATYYCQQYNSAYTFGQGTKLEIK | – | 22.9 | 0.0249 | 24700 | no binding (tested: 2 µg/ml) | no binding (tested: 2 µg/ml) | no binding (tested: 2 µg/ml) | no binding (tested: 2 µg/ml) | no binding (tested: 2 µg/ml)
17B6 fully humanized antibody (recombinant, human IgG1 / kappa) (antibody, V domains shown) VH: QVQLVESGGGVVQPGRSLRLSCEASGFTFSRHGMHWVRQAPGKGLEWVAVIFYDGSQNYYADSVRGRFTISRDNSKNTLSLQMDSLRAEDTAVYYCARRSITWNGGFDIWGQGTMVTVSP VL: DIQMTQSPSTLSASVGDRVTITCRASQSISSWLAWYQQKPGKAPKLLIYKASSLESGVPSRFSGSGSGTEFTLAISSLQPDDFATYYCQQYNRFYTFGQGTKLEIK | 0.00452 | – | – | – | – | – | – | – | –
31A2 fully humanized antibody (recombinant, human IgG1 / kappa) (antibody, V domains shown) VH: QVQLVESGGGVVQPGRSLRLSCAASGFTFSRHGMHWVRQAPGKGLEWVAVIWYDGSNKYYVDSVKGRFTISRDNSKNTLDLQMNSLRAEDTAVYYCARRSITWDGAFDIWGQGTMVTVSS VL: DIQMTQSPSTLSASVGDRVTISCRASQSISSWLAWYQQKPGKAPKLLIYKASSLESGVPSRFSGSGSGTEFTLTISSLQPDDFATYYCQQYNSAYTFGQGTKLEIK | 0.00446 | – | – | – | – | – | – | – | –
11H8 fully humanized antibody (recombinant, human IgG1 / kappa) (antibody, V domains shown) VH: QVQLVESGGGVVQPGRSLRLSCAASGFTFSRHGMHWVRQAPGKGLEWVAVIWYDGSNQYYVDSVKGRFTISRDNSKNTLDLQMNSLRVEDTAVYYCARRSITWYGGFDIWGQGTMVTVSS VL: DIQMTQSPSTLSASVGDRVTITCRASQSISSWLAWYQQKPGKAPKLLIYKASSLESGVPPRFSGSGSGTEFTLTISSLQPDDFATYYCQQYNSAYTFGQGTKLEIK | 0.00263 | – | – | – | – | – | – | – | –
27F11 fully humanized antibody (recombinant, human IgG1 / kappa) (antibody, V domains shown) VH: QVQLVESGGGVVQPGRSLRLSCAASGFTFSRHGMHWVRQAPGKGLEWVAVIYYDGSNKYYVDSVKGRFTISRDNSKNTLDLQMNSLRAEDTAVYYCARRSITWNGAFDIWGQGTMVTVSS VL: DIQMTQSPSTLSASVGDRVTISCRASQSISSWLAWYQQKPGKAPKLLIYKASSLESGVPSRFSGSGSGTEFTLTISSLQPDDFATYYCQQYNSAYTFGQGTKLEIK | 0.004 | – | – | – | – | – | – | – | –
15F2 (hybridoma antibody) (antibody, V domains shown, hybridoma mAb from H2L2 mouse (human variable, rat constant regions)) VH: QVQLVESGGGVVQPGRSLRLSCAASGFTFSRHGMHWVRQAPGKGLEWVAVIWYDGSNKYYVDSVKGRFTISRDNSKNTLDLQMNSLRAEDTAVYYCARRSITWDGAFDIWGQGTMVTVSS VL: DIQMTQSPSTLSASVGDRVTVTCRASQSIRSWLAWYQQKPGKAPKLLIYKASSLESGVPSRFSGSGSGTEFTLTISSLQPDDFATYYCQQYNSAYTFGQGTKLEIK | – | 24.6 | 0.0287 | 21700 | no binding (tested: 2 µg/ml) | no binding (tested: 2 µg/ml) | no binding (tested: 2 µg/ml) | no binding (tested: 2 µg/ml) | no binding (tested: 2 µg/ml)
19D6 (antibody, V domains shown, hybridoma mAb from H2L2 mouse (human variable, rat constant regions)) VH: QVQLVESGGGVVQPGRSLRLSCAASGFTFSRHGMHWVRQAPGKGLEWVAVIWYDGSNKYYVDSVKGRFTISRDNSKNTLDLQMNSLRAEDTAVYYCARRSITWDGAFDIWGQGTMVTVSS VL: DIQMTQSPSTLSASVGDRVTVTCRASQSIRSWLAWYQQKPGKAPKLLIYKASSLESGVPSRFSGSGSGTEFTLTISSLQPDDFATYYCQQYNSAYTFGQGTKLEIK | – | – | 0.0737 | 10400 | – | – | – | – | –
11H8 (hybridoma antibody) (antibody, V domains shown, hybridoma mAb from H2L2 mouse (human variable, rat constant regions)) VH: QVQLVESGGGVVQPGRSLRLSCAASGFTFSRHGMHWVRQAPGKGLEWVAVIWYDGSNQYYVDSVKGRFTISRDNSKNTLDLQMNSLRVEDTAVYYCARRSITWYGGFDIWGQGTMVTVSS VL: DIQMTQSPSTLSASVGDRVTITCRASQSISSWLAWYQQKPGKAPKLLIYKASSLESGVPPRFSGSGSGTEFTLTISSLQPDDFATYYCQQYNSAYTFGQGTKLEIK | – | 11.8 | 0.0301 | 23300 | no binding (tested: 2 µg/ml) | no binding (tested: 2 µg/ml) | no binding (tested: 2 µg/ml) | no binding (tested: 2 µg/ml) | no binding (tested: 2 µg/ml)
15F2 fully humanized antibody (recombinant, human IgG1 / kappa) (antibody, V domains shown) VH: QVQLVESGGGVVQPGRSLRLSCAASGFTFSRHGMHWVRQAPGKGLEWVAVIWYDGSNKYYVDSVKGRFTISRDNSKNTLDLQMNSLRAEDTAVYYCARRSITWDGAFDIWGQGTMVTVSS VL: DIQMTQSPSTLSASVGDRVTVTCRASQSIRSWLAWYQQKPGKAPKLLIYKASSLESGVPSRFSGSGSGTEFTLTISSLQPDDFATYYCQQYNSAYTFGQGTKLEIK | 0.00378 | – | – | – | – | – | – | – | –
